The labels stand for the following.
T1: GST fusion to Boi1 (1-203) (Saccharomyces cerevisiae, UniProt P38041 1-203)
T1 sequence: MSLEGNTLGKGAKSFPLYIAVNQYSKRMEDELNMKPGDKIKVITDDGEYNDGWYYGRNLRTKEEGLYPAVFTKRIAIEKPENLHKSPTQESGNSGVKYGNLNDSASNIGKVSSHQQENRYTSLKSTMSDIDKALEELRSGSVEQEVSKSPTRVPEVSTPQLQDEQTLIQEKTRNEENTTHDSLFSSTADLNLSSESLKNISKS

B1: GST fusion to Boi_(77-178) (domain or fragment)
chain: IEKPENLHKSPTQESGNSGVKYGNLNDSASNIGKVSSHQQENRYTSLKSTMSDIDKALEELRSGSVEQEVSKSPTRVPEVSTPQLQDEQTLIQEKTRNEENT
B2: 6xHis Bud6_(1-141) (domain or fragment)
chain: MKMAVDDPTYGTPKIKRTASSSSSIETTVTKLLMSTKHLLQVLTQWSKGTTSGRLVSDAYVQLGNDFKVVSKFFMHAKVDMSDVGDVPMALRRVLEVTLREPPSDETLNKHLPKIREIIVTLLDKLKVKQAILKNMQQEHR

The assay “6xHis Bud6_(1-141)” concerns the target B2. Put plainly: pull-down.
The target of assay [1] is T1, GST fusion to Boi1 (1-203). In words: pull-down.

For B1, the binding result with 6xHis Bud6_(1-141) is given as “binds”.
Consider B2, for which the binding result in assay [1] is given as “binds”.

These data come from doi:10.1101/715409 (bioRxiv, 2019).
